One substance from article PMC2174332 can be followed below.

This experiment concerns the target muscle-specific receptor tyrosine kinase (MuSK), Torpedo orthologue (Torpedo (endogenous in electric tissue)). As to the kind of experiment: cross-linking.

Substance “40-kD COOH-terminal fragment of MAGI-1c (Torpedo) (domain or fragment)” yielded a percent of total MuSK in the 140-kD cross-link product below 30%.
